Measured values from article doi:10.1101/2021.03.20.21254037.

Biological target: truncated human ACE2 ectodomain (residues 19-613), AviTagged, biotinylated (human) (UniProt Q9BYF1)
Assay: BLI

Substance | t½ (complex half-time) [min]
SARS-CoV-2 RBD natural variant N439K (from UniProt P0DTC2 319-541) (domain or fragment) | 1.85
SARS-CoV-2 RBD natural variant N501Y (from UniProt P0DTC2 319-541) (domain or fragment) | 5.49
SARS-CoV-2 RBD natural variant Q493L (from UniProt P0DTC2 319-541) (domain or fragment) | 3.52
SARS-CoV-2 RBD natural variant S477N (from UniProt P0DTC2 319-541) (domain or fragment) | 2.68
SARS-CoV-2 RBD wild type (WHU1 isolate, amino acids 319-541) (from UniProt P0DTC2 319-541) (domain or fragment) | 1.4
